Data set [1] concerns the target T1, CD33 on U937 cells (UniProt P20138 18-364, limits assumed).
T1 construct: whole, on cells
The data set can be described thus: flow cytometry on U937 cells (cell line per paragraph 272), purified fusion protein, detection with FMC63-PE, % Binding.

The target in another data set is biotinylated CD33 (UniProt P20138 18-259, biotinylated (site not stated)). Description: ELISA: fusion protein captured on FMC63, biotinylated CD33, HRP-SA. For orientation: An ELISA detects its analyte on a solid surface through an enzyme-linked reagent.
A further data set concerns Molm14 cells. The data set can be described thus: CAR-CD19 T cell cytotoxicity bridged by purified fusion protein, luciferase Molm14 cells. In kind it is cell-based. The settings on record: FIG. 21A. The protocol:
To test cytoxicity, luciferase labeled Molm14 or U937 cells were targeted for cytotoxic killing using a CAR19 T cell preparation and the purified proteins #330, #410 and #440 added in a dose titration. 1×10^4 target cells were added to each well (96 clear round bottom plate) in RPMI medium. The protein titration was started at 180 ng/ml with 3-fold serial titration into corresponding wells (25 μl per well). CAR-CD19 T cells were added at various E:T ratios to the target cells. After 48 hours the plate was centrifuged (450 RCF for 5 minutes) and the cells were washed 1× with PBS then centrifuged a second time. 20 μl lysis buffer was added into each well. The cell lysate was transferred to a 96 opaque white plate. The plates were read in a luminometer with an injector (Glomax Multi Detection System, Promega). The percent killing was calculated based upon the average loss of luminescence of the experimental vs the control (target cell only or target cell plus fusion protein only).

The target in a further data set is CD33 (Homo sapiens, UniProt P20138). Description: ELISA of fusion proteins, FMC63 coat, biotinylated CD33 detection. It is filed as binding. The settings on record: ELISA, FMC63 coat, biotinylated CD33. The protocol:
ELISAs for binding to CD19, CLEC12A and CD33 were run using purified fusion proteins #330, #410 and #440. A 96 well plate was coated with 1.0 μg/ml FMC63 (Novus) in 0.1 M carbonate, pH 9.5 overnight at 4° C. The plate was blocked with 0.3% non-fat milk in TBS for 1 hour at room temperature. After washing in TBST (0.1 M Tris, 0.5 M NaCl, 0.05% Tween20) 3 times, the fusion protein supernatant was titrated using 3-fold dilutions in 1% BSA in TBS and incubated 1 hour at room temperature. For detection by anti-His, after washing 3 times in TBST, HRP-anti-His (BioLegend) was added at 1:2000. The plate was incubated at room temperature in the dark for 1 hour. For detection of binding to CLEC12A, biotinylated CLEC12A was added at 0.5 μg/ml and incubated for 1 hour. This was followed by adding HRP-SA (Pierce) at 1:2000 and incubated at room temperature in the dark for 1 hour. For testing binding to CD33, biotinylated CD33 was added at 0.5 μg/ml and incubated for 1 hour. This was followed by adding HRP-SA (Pierce) at 1:2000 and incubated at room temperature in the dark for 1 hour. Then, 1-Step Ultra TMB-ELISA (Thermo Fisher) solution, was added and the plate read at […]. Curves were fit using a four-parameter logistic (4 PL) regression to calculate the EC50.

The target of the next data set is T2, CLEC12A (Homo sapiens, UniProt Q5QGZ9, K244Q).
T2 sequence (Q5QGZ9 65-265 K244Q): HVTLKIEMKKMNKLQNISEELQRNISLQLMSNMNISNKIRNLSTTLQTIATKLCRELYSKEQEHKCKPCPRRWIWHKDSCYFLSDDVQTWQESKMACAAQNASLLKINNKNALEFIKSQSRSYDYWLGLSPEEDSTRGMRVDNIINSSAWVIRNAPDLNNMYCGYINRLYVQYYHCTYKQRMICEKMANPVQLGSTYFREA
Description: ELISA of fusion proteins, FMC63 coat, biotinylated CLEC12A detection. It is filed as binding.

The target of data set [2] is T3, CLL-1 (CLEC12A) on CLL-1 positive cell lines (U937, OCI-AML-5) (human, UniProt Q5QGZ9 1-265).
T3 sequence: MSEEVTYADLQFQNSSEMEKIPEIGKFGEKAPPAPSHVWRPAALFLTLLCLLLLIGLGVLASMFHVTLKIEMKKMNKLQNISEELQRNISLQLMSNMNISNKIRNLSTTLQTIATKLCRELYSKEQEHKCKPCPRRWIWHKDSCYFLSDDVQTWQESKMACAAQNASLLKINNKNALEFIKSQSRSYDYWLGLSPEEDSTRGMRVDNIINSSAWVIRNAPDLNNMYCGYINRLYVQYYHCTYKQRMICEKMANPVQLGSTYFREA
The data set can be described thus: cell-based or functional assay.

Data set [3] addresses T3, CLL-1 (CLEC12A) on CLL-1 positive cell …. Description: flow cytometry on CLL-1 positive U937 cells, FMC63-PE detection. For orientation: In flow cytometry, cells or beads pass a laser one at a time.
The target is the same in data set [4]. The data set can be described thus: flow cytometry on U937 cells (cell line per paragraph 272), purified fusion protein, detection with FMC63-PE, % Binding; the cells carry both CLEC12A and CD33, the value is for the whole cell and is not split between the two antigens.
Data set [5] deals with T1, CD33 on U937 cells. The description is as above.

Several values for one entry are separate records, joined by “and”; a condition that tells them apart may be missing. Identical values can stand only once.

B1: anti-CD33 scFv-variant CD19-His (construct #410) (other)
chain: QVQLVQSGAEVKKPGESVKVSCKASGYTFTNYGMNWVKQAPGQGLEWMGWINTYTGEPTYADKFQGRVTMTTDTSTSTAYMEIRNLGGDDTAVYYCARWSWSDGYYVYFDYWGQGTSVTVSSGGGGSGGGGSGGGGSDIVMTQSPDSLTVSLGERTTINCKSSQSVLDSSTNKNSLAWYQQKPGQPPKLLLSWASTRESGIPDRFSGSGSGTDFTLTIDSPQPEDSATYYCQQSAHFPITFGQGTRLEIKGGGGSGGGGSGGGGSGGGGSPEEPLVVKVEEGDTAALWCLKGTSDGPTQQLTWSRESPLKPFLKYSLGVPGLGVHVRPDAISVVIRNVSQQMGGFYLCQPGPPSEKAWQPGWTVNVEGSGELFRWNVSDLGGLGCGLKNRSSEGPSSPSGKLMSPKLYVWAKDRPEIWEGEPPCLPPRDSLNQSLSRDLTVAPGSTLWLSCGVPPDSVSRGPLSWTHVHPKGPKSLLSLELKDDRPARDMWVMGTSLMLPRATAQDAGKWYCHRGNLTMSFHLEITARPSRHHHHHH
notes: also called anti-CD33 scFv fusion protein
As for B1, the EC50 (as a rule, the concentration giving half of the maximal effect) with CD33 on U937 cells [1] is 0.0213 µg/mL and 0.37 nM; with biotinylated CD33, 0.003 µg/mL and 0.0522 nM.

B2: #410: fusion protein containing the CD19 ECD and anti-CD33 scFv; SEQ ID NO:325 (protein)
chain: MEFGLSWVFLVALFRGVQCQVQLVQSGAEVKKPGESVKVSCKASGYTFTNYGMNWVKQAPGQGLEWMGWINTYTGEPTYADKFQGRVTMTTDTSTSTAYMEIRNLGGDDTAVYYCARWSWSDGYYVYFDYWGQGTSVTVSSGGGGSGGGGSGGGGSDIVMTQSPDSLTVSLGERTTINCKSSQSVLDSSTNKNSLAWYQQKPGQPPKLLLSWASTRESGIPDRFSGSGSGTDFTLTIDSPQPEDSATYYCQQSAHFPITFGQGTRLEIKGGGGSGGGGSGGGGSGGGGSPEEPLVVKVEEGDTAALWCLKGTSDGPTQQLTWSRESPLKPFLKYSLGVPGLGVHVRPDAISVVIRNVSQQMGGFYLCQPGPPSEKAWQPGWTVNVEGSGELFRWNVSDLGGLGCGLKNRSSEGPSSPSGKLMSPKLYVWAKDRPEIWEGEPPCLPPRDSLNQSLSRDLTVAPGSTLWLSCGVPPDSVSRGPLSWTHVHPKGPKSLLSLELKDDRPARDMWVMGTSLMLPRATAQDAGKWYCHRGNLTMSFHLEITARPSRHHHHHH
Turning to B2, the “cytotoxicity on Molm14 cells” value in the data set with Molm14 cells was “about equipotent”. In addition, in the data set with CD33, the “CD33 binding EC50” value is 3.0 ng/mL. Further, in the data set with CLEC12A, the “CLEC12A binding EC50 pM” value was “∞” and the “CLEC12A binding EC50 ng/ml” value is “∞”.

B3: CD19 variant-anti-CLL-1 VHH(1B12) (construct #321) (other)
chain: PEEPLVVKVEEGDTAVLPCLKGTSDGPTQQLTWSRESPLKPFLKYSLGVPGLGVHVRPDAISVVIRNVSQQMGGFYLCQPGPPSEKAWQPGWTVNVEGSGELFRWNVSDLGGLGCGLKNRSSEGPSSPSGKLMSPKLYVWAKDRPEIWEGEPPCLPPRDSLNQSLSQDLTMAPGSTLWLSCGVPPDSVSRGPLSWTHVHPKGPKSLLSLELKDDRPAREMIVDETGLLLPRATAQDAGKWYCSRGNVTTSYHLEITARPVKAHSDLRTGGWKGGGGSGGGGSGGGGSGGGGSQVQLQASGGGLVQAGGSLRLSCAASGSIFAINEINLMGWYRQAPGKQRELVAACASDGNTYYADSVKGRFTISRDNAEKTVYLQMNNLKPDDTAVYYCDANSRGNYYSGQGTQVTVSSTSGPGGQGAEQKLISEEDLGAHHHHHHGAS
notes: Fusion of a CD19 variant extracellular domain, linker, anti-CLL-1 VHH 1B12 and myc-His tag
In the case of B3, in [2], the “CLEC12A-cell cytotoxicity (IC50 n = 2-3)” value turned out to be 0.027 nM. Besides, a half-maximal response in data set [3] (EC50) required 3 nM.

B4: anti-CD33 scFv-anti-CLL VHH (2H3)-CD19 variant (construct #440) (other)
chain: QVQLVQSGAEVKKPGESVKVSCKASGYTFTNYGMNWVKQAPGQGLEWMGWINTYTGEPTYADKFQGRVTMTTDTSTSTAYMEIRNLGGDDTAVYYCARWSWSDGYYVYFDYWGQGTSVTVSSGGGGSGGGGSGGGGSDIVMTQSPDSLTVSLGERTTINCKSSQSVLDSSTNKNSLAWYQQKPGQPPKLLLSWASTRESGIPDRFSGSGSGTDFTLTIDSPQPEDSATYYCQQSAHFPITFGQGTRLEIKGGGGSGGGGSGGGGSGGGGSQVQLQESGGGLVQAGGSLRLSCVASGSIRSINVMGWYRQAPGKQRELVAACASDGNTYYADSVKGRFTISRDNAEKTVYLQMNNLKPDDTAVYYCDANSRGNYYSGQGTQVTVSSTSGPGGQGAGGGGSGGGGSGGGGSGGGGSPEEPLVVKVEEGDTAALWCLKGTSDGPTQQLTWSRESPLKPFLKYSLGVPGLGVHVRPDAISVVIRNVSQQMGGFYLCQPGPPSEKAWQPGWTVNVEGSGELFRWNVSDLGGLGCGLKNRSSEGPSSPSGKLMSPKLYVWAKDRPEIWEGEPPCLPPRDSLNQSLSRDLTVAPGSTLWLSCGVPPDSVSRGPLSWTHVHPKGPKSLLSLELKDDRPARDMWVMGTSLMLPRATAQDAGKWYCHRGNLTMSFHLEITARPSRHHHHHH
In the case of B4, the EC50 in data set [4] was 0.00796 µg/mL and 0.111 nM; with CD33 on U937 cells [5], 0.00796 µg/mL and 0.111 nM; in the data set with biotinylated CD33, 0.0021 µg/mL and 0.0292 nM.
